Patent US12653899B2, “Multi-targeted, tunable, sustained delivery of payloads to charged avascular tissues” (Massachusetts Institute of Technology, priority 2019, dated 2026)

Legend:
[1] = system: bovine cartilage explants; test: GFP penetration into bovine cartilage explants (confocal microscopy); assay type: in vitro ADME
Description: Bovine cartilage explants were incubated for either 24 h or 8 days (37° C., 5% CO2) in 1 μM solutions of the cationic S-GFPs dissolved in PBS+1% BSA. Similarly, explants were placed in 1 μM solutions of the neutral GFPs for either 18 h or 26 h. In a separate series of experiments, bovine cartilage explants were cultured in ultra-low attachment cell culture plates (Corning) for a period of 8 days in 1 μM solutions of cationic S-GFPs dissolved in low glucose (1 g/L) DMEM (with no phenol red) with 10% fetal bovine serum (FBS) supplemented with 2 mM Lglutamine, 100 U/mL penicillin, […] streptomycin, […] amphotericin, 10 mM HEPES buffer, 0.1 mM nonessential amino acids (NEAA) and 0.4 mM proline (37° C., 5% CO2). Media changes were performed every 48 h, and fresh cationic S-GFP were added with each media change. At the end of all such experiments, explants were sectioned longitudinally into […] slices and washed with PBS. Primary bovine chondrocytes were incubated for 24 h (37° C., 5% CO2) in 100 nM solutions of GFPs dissolved in serum-free medium having the same composition as that described in the bovine cartilage harvest section. At the end of 24 h, chondrocytes were washed three times with heparin dissolved in PBS (20 U/mL) to remove non-internalized GFPs, fixed with 4% paraformaldehyde, stained with DAPI and washed with PBS. […]

[2] = system: human cartilage explants (knee); test: Quantitative uptake of cationic S-GFPs into human knee cartilage explants; assay type: in vitro ADME; conditions: donor knee; PBS+1% BSA or BSF
From the text: Two human knee joint distal femurs were obtained through the Gift of Hope Organ and Tissue Donor Network (Itaska, IL). A Collins grade 0 normal knee was from a donor and a near-normal grade 1 from a person. (The Collins visual grading scale grades spans grades 0-4 [20], with grade 0=normal and grade 4=end stage osteoarthritis.) All procedures were approved by the Rush University Medical Center Institutional Review Board (ORA Number: 08082803IRB01-AM01) and the Committee on the Use of Humans as Experimental Subjects at MIT. […]
Experiments to quantify the uptake of GFPs into cartilage were started after the explants had been pre-equilibrated in culture medium for 48 h post-harvest. […] (Standard 96-well cell culture plates were not used because S-GFPs could stick to polystyrene even in the presence of BSA, leading to a loss of protein. In contrast, use of polypropylene with 1% BSA enabled complete recovery of fluorescence). […] At the same time, the fluorescence of the absorption bath was measured using a plate reader (Synergy H1, Biotek Instruments Inc.) (excitation: 485 nm, emission: 528 nm). […] At the end of the desorption in 10×PBS+1% BSA, cartilage explants were weighed and the fluorescence of the desorption bath was measured. […] The uptake ratio was calculated as the ratio of GFP concentration inside cartilage (mol/mg wet weight) to the final absorption bath concentration (mol/mL).

Substance: +36 GFP: engineered supercharged green fluorescent protein carrier with net positive charge +36, SEQ ID NO: 4
- extent of penetration into cartilage explant ([1]; 24 h in PBS+1% BSA, 1 mm thick bovine explants): did not
- localization within cartilage explant ([1]; by day 8 in PBS+1% BSA, bovine explants): localized primarily inside chondrocytes throughout the tissue thickness
- 24 h uptake ratio compared among cationic S-GFPs [2]: significantly lower compared to the other two GFP variants

Substance: +25 GFP: engineered supercharged green fluorescent protein carrier with net positive charge +25, SEQ ID NO: 3
- 24 h uptake ratio compared among cationic S-GFPs [2]: significantly lower compared to the other two GFP variants
